B1: ADI-11835 Fab (Fab, V domains shown)
VH: QLQLQESGPGLVKPSETLSLTCTVSGGSISSTDYYWGWIRQPPGKGLEWIGSIGYSGTYYNPSLKSRVTISVDTSKNQFSLKLSSVTAADTAVYYCARETAHDVHGMDVWGQGTTVTVSS
VL: EIVLTQSPATLSLSPGERATLSCRASHSVYSYLAWYQQKPGQAPRLLIYDASNRATGIPARFSGSGSGTDFTLTISSLEPEDFAVYYCQQYDNLPTFGGGTKVEIK
notes: Fab fragment; also called Ab10; I35
B2: ADI-11830 Fab (Fab, V domains shown)
VH: EVQLVESGGGLVQPGGSLRLSCAASGFTFSSYWMSWVRQAPGKGLEWVANINTDGSEVYYVDSVKGRFTISRDNAKNSLYLQMNSLRAEDTAVYYCARDVGPGIAYQGHFDYWGQGTLVTVSS
VL: DIQMTQSPSSLSASVGDRVTITCRASQVIYSYLNWYQQKPGKAPKLLIYAASSLKSGVPSRFSGSGSGTDFTLTISSLQPEDFATYYCQQVYDTPLTFGGGTKVEIK
notes: Fab fragment; also called Ab9
B3: ADI-11819 Fab (Fab, V domains shown)
VH: EVQLVESGGGLVKPGGSLRLSCAASGFTFSSYAMSWVRQAPGKGLEWVSSISSSSEGIYYADSVKGRFTISRDNAKNSLYLQMNSLRAEDTAVYYCAREGGPYYDSSGYFVYYGMDVWGQGTTVTVSS
VL: DIQMTQSPSTLSASVGDRVTITCRASNSISSWLAWYQQKPGKAPKLLIYEASSTKSGVPSRFSGSGSGTEFTLTISSLQPDDFATYYCQQYDDLPTFGGGTKVEIK
notes: Fab fragment; also called Ab8

This is an account of results in patent US20220380459A1 (DRAGONFLY THERAPEUTICS, published 2022).

As usually defined, the Kd is the constant that tells how readily two partners part at equilibrium. A lower Kd goes with tighter binding. In general, koff refers to the rate constant with which the complex falls apart. The low end stands for a long-lived complex, the high end for a short-lived complex. Usually kon stands for the second-order rate constant of association.

The target of one experiment is T1, human CD33 extracellular domain (human, UniProt P20138 18-259).
T1 construct: soluble monomeric ECD; also called human CD33 ECD; hCD33
The experiment can be described thus: SPR, Fab captured, 37C.
Experimental: (§1) Kinetics and affinity of a series of Fab fragments of anti-CD33 antibodies with different CD33 variants (human CD33 ECD, cyno CD33 ECD, V-domain of human CD33, C-domain or human CD33 and selected CD33 SNPs) were assessed by surface plasmon resonance using Biacore 8K instrument (GE Healthcare). Anti-Fab antibody was immobilized on a CMS chip using standard amine coupling chemistry. CD33 FABs were captured on the anti-Fab chip at a density of ˜100 RU. Solutions containing different concentrations of soluble monomeric CD33 or its domains were injected over the captured FABs and control surfaces at 30 μl/min at 37° C. Surfaces were regenerated between cycles by quick injection of 10 mM glycine, pH 1.8. To obtain kinetic rate constants double-referenced data were fit to a 1:1 interaction model using Biacore 8K Evaluation software (GE Healthcare). The equilibrium binding constant KD was determined by the ratio of binding rate constants kd/kₐ.
(§2) Affinity of 29 Fab fragments binding to human and cyno CD33 ECD were assayed by Biacore analysis.
Consider B1, for which the Kd turned out to be 0.53 nM, the koff stood at 0.00143 s⁻¹ and the on-rate constant (kon) turned out to be 2.6e+06 M⁻¹ s⁻¹.

Turning to B2, the dissociation constant Kd is 2.75 nM, the koff turned out to be 0.00547 s⁻¹ and the association rate constant (kon) stood at 1.99e+06 M⁻¹ s⁻¹.

In turn, B3 had a dissociation constant Kd of 0.02 nM, a koff of 5.65e-05 s⁻¹ and an on-rate (kon) of 2.84e+06 M⁻¹ s⁻¹.

The target in another experiment is T2, V domain of human CD33 (human, UniProt P20138 18-139, limits assumed).
T2 construct: recombinant, fully glycosylated V domain; also called Human CD33 V domain
The experiment can be described thus: SPR, Fab captured, 37C. (In SPR one partner is held on a chip, and binding of the other changes the refractive index at the surface.)
Consider B1, for which the dissociation constant (Kd) worked out at 1.14 nM, the koff worked out at 0.00868 s⁻¹ and the on-rate (kon) is 7.6e+06 M⁻¹ s⁻¹.

B2: the dissociation constant (Kd) came out at 4.5 nM, the dissociation rate constant (koff) was determined as 0.0299 s⁻¹ and the kon stood at 6.67e+06 M⁻¹ s⁻¹.

As for B3, the Kd stood at 0.14 nM, the off-rate constant (koff) turned out to be 0.000916 s⁻¹ and the kon is 6.75e+06 M⁻¹ s⁻¹.

A further experiment has as its target T3, deglycosylated V domain of human CD33 (human, UniProt P20138 18-139, limits assumed, N-glycans removed by PNGase).
T3 construct: V domain deglycosylated by PNGase before testing; also called deglycosylated V CD33
The experiment can be described thus: SPR, Fab captured, 37C.
B1 displayed a Kd of 0.98 nM, an off-rate (koff) of 0.00779 s⁻¹ and an association rate constant (kon) of 7.94e+06 M⁻¹ s⁻¹.

The molecule B2 returned a Kd of 3.95 nM, a koff of 0.0269 s⁻¹ and a kon of 6.8e+06 M⁻¹ s⁻¹.

For the molecule B3, the Kd came out at 0.11 nM, the dissociation rate constant (koff) turned out to be 0.00103 s⁻¹ and the kon was 9.15e+06 M⁻¹ s⁻¹.

The next experiment addresses T1, human CD33 extracellular domain. The experiment can be described thus: SPR, Fab captured, 37C. The source holds these as a separate data set.
Experimental: as §1, §2
Regarding B1, the Kd worked out at 0.53 nM, the off-rate constant (koff) came out at 0.00143 s⁻¹ and the kon amounted to 2.6e+06 M⁻¹ s⁻¹.

Take B2: the Kd is 2.75 nM, the koff was determined as 0.00547 s⁻¹ and the on-rate constant (kon) was determined as 1.99e+06 M⁻¹ s⁻¹.

For B3, the Kd stood at 0.02 nM, the koff was found to be 5.65e-05 s⁻¹ and the association rate constant (kon) was 2.84e+06 M⁻¹ s⁻¹.

In a further experiment the target is T4, cyno CD33 extracellular domain (Cynomolgus/Rhesus (cyno)).
T4 construct: soluble monomeric ECD; also called cyno CD33 ECD
Kind of experiment: SPR, Fab captured, 37C.
Experimental: as §1, §2
The molecule B1 returned a Kd of 6.86 nM, a dissociation rate constant (koff) of 0.0189 s⁻¹ and a kon of 2.76e+06 M⁻¹ s⁻¹.

B2 registered a dissociation constant Kd of 27.8 nM, an off-rate (koff) of 0.0364 s⁻¹ and an association rate constant (kon) of 1.34e+06 M⁻¹ s⁻¹.

B3 gave a dissociation constant (Kd) of 4.96 nM, a koff of 0.019 s⁻¹ and a kon of 3.82e+06 M⁻¹ s⁻¹.

A further experiment deals with T5, C domain of human CD33 (human, UniProt P20138 140-259, limits assumed).
T5 construct: recombinant C domain
The experiment can be described thus: SPR, Fab captured, 37C.
In the case of B1, the binding result is “no binding”.

As for B2, the binding result is “no binding”.

In the case of B3, the binding result is recorded as “no binding”.

A further experiment concerns the target T2, V domain of human CD33. The experiment can be described thus: SPR, Fab captured, 37C. The source holds these as a separate data set.
Experimental: as §1
Regarding B1, binding was characterised by a dissociation constant (Kd) of 1.14 nM, the off-rate (koff) was found to be 0.00868 s⁻¹ and the kon worked out at 7.6e+06 M⁻¹ s⁻¹.

With B2, the dissociation constant (Kd) was determined as 4.5 nM, the dissociation rate constant (koff) came out at 0.0299 s⁻¹ and the kon worked out at 6.67e+06 M⁻¹ s⁻¹.

The molecule B3 gave a Kd of 0.14 nM, a dissociation rate constant (koff) of 0.000916 s⁻¹ and a kon of 6.75e+06 M⁻¹ s⁻¹.

A further experiment has as its target T1, human CD33 extracellular domain. The experiment can be described thus: SPR, Fab captured, 37C. This is another data set of the same source.
Experimental: as §1
B1 showed a dissociation constant (Kd) of 0.53 nM, a koff of 0.00143 s⁻¹ and a kon of 2.6e+06 M⁻¹ s⁻¹.

With B2, the affinity, expressed as Kd, was 2.75 nM; the koff amounted to 0.00547 s⁻¹; the on-rate (kon) was determined as 1.99e+06 M⁻¹ s⁻¹.

Consider B3, for which binding was characterised by a dissociation constant (Kd) of 0.02 nM, the off-rate constant (koff) is 5.65e-05 s⁻¹ and the association rate constant (kon) was determined as 2.84e+06 M⁻¹ s⁻¹.
